Data: publication PMC6604206, “Cascade synthesis of uridine-5′-diphosphate glucuronic acid by coupling multiple whole cells expressing hyperthermophilic enzymes” (Microbial Cell Factories, 2019)

B1: StUSP (Sulfurisphaera tokodaii str. 7) (protein)
chain: MKAFILAAGSGERLEPITHTRPKAFVPILSKPLIEYQIEYLRKCGIRDITVIVSSKNKEYFEKKLKEISIVTQKDDIKGTGAAILSAKFNDEALIIYGDLFFSNEKEICNIITLKENAIIGVKVSNPKDYGVLVLDNQNNLSKIIEKPEIPPSNLINAGIYKLNSDIFTYLDKISISERGELELTDAINLMAKDHRVKVIEYEGYWMDIGKPWNIIDVNKWALDNLVFSQNLGNVEDNVKIKGKVIIEEDAEIKSGTYIEGPVYIGKGSEIGPNSYLRPYTILVEKNKIGASVEVKESVIMEGSKIPHLSYVGDSVIAEDVNFGAGTLIANLRFDEKEVKVNVKGKRISSGRRKLGAFIGGHVRTGINVTILPGVKIGAYARIYPGAVVNRDVGYGEFFKV

Columns and labels:
PiUDH = biological target: T1, PiUDH (Pyrobaculum islandicum, UniProt A1RUM9); experiment: whole-cell conversion, PAMN-HPLC and ESI-MS of UDP-GlcA; assay type: cell-based; conditions: BL21-PiUDH whole cells, NAD+ varied 0-1.2 mM, 2.3 mM UDP-Glc, sodium phosphate
T1 construct: gene Pisl_1505; N-terminal His6 tag, codon-optimised gene, pET15b, whole E. coli BL21(DE3) cells

purified protein = substrate: O=P(O)(O)O[C@H]1O[C@H](CO)[C@@H](O)[C@H](O)[C@H]1O; experiment: purified protein; assay type: biochemical, Sulfurisphaera tokodaii; conditions: 3 mM UTP, 20 mM MgCl2, 50 mM Tris-HCl pH 7.5, 80 °C (also measured at 37 °C)

T1 sequence (A1RUM9 entry or part of it): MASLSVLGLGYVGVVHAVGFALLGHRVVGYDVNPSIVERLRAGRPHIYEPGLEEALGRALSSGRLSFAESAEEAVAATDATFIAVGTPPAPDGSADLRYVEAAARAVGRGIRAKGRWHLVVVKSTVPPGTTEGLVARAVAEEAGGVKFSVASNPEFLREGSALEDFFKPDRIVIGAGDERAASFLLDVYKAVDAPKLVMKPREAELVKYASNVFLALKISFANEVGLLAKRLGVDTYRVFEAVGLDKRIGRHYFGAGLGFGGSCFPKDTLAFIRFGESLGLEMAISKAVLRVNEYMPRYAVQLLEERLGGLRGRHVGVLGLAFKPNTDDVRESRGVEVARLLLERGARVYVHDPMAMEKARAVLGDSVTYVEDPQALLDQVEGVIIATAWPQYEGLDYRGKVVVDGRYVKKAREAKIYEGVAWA

| Molecule | whole-cell conversion, PAMN-HPLC and ESI-MS of UDP-GlcA (PiUDH) | Km (purified protein) [µM] | Vmax (purified protein) [µmol/min/mg] |
| --- | --- | --- | --- |
| NC(=O)c1ccc[n+]([C@@H]2O[C@H](COP(=O)(O)OP(=O)(O)OC[C@H]3O[C@@H](n4cnc5c(N)ncnc54)[C@H](O)[C@@H]3O)[C@@H](O)[C@H]2O)c1 [NAD^+] | The synthetic efficiency showed a positive correlation with the concentration of NAD^+ | – | – |
| B1 | – | 1474 ± 225 | 14500 ± 227 |
